Data as given in patent US8486893B2, “Treatment of conditions involving demyelination” (Biogen Idec MA Inc., priority 2004, dated 2013).

Tested on: co-cultures of dorsal root ganglion (DRG) neurons and oligodendrocytes
Experiment: In vitro myelination in co-cultures of DRG neurons and oligodendrocytes
Type: cell-based, rat
Procedure: The role of Sp35 in myelination was examined in vitro by treating co-cultures of dorsal root ganglion (DRG) neurons and oligodendrocytes with Sp35-Fc and testing for myelination by immunohistochemistry and electron microscopy. For these studies, it was necessary to first generate primary cultures of DRG neurons and of oligodendrocytes.
Female Long Evans rat E14-E17 embryonic dorsal root ganglia were cultured as described by Plant et al., J. Neurosci. 22:6083-91 (2002). Dissected DRGs were plated on poly-L-lysine-coated cover slips (100 μg/ml) for 2 weeks in the presence of fluorodeoxyuridine for days 2-6 and days 8-11 in NLA medium containing 1× B27, 100 ng/ml NGF (Invitrogen).
A2B5^+ oligodendrocytes were prepared as described in Example 1, and were harvested by trypsinization.
For coculture studies, A2B5^+ oligodendrocytes were added to DRG neuron drop cultures in the presence or absence of 10 μg/ml Sp35-Fc. The culture medium (Neurobasal medium supplemented with B27 and 100 ng/ml NGF) was changed, and fresh Sp35-Fc was added to the cells every 3 d. To identify changes in myelination, 2-week-old cultures were stained by immunohistochemical staining (“IHC”) for neurofilaments with anti-βIII-tubulin antibody to identify axons, or anti-MBP antibody to identify oligodendrocytes., and 4-week-old cultures were subjected to SDS-PAGE followed by western blot analyses to quantify the MBP. In selected examples, cells were fixed for electron microscopy studies by adding 2.5% gluteraldehyde directly onto the cover slips. Myelinated axons in the 2-week-old cultures were quantified by counting the number of myelinated internode bundles that were derived from single MBP^+ oligodendrocytes. Samples were analyzed in duplicate. Error bars denote individual determinations. P values in all studies were determined using a one-way analysis of variance.
Several peptides containing portions of the Ig domain of Sp35 were examined in vitro, by treating co-cultures of dorsal root ganglion (DRG) neurons and oligodendrocytes with Sp35 Ig peptides and testing for myelination as described in Example 5.
For co-culture studies, A2B5^+ oligodendrocytes were added to DRG neuron drop cultures in the presence or absence of 10 μg/ml Sp35-Ig-Fc (Sp35 amino acids 417-493 fused to Fc). The culture medium (Neurobasal medium supplemented with B27 and 100 ng/ml NGF) was changed, and fresh Sp35-Ig-Fc was added to the cells every 3 d. To identify changes in myelination, 2-week-old cultures were stained by immunohistochemical staining (“IHC”) for neurofilaments with anti-βIII-tubulin antibody to identify axons, or anti-MBP antibody to identify oligodendrocytes and 4-week-old cultures were subjected to SDS-PAGE followed by western blot analyses to quantify the MBP.
We performed experiments to address the relative contributions to the myelination process of Sp35 in DRG neurons as compared to oligodendrocytes. We infected DRG neurons, oligodendrocytes and co-cultures (prepared as described in Example 5) with the FL-Sp35 and DN-Sp35 lentiviral vectors described in Example 1 and performed immunohistochemical straining for myelinated MBP cells after two weeks. A 2-fold increase in MBP levels in co-cultures where both cells express DN-Sp35 and a 2-fold decrease in MBP levels in co-cultures where both cells express FL-Sp35 was observed (FIG. 10G).

B1: Sp35-Fc: extra-cellular portion of human Sp35 (residues 1-532) fused to the hinge and Fc region of human IgG1 (protein)
chain: TGCPPRCECSAQDRAVLCHRKRFVAVPEGIPTETRLLDLGKNRIKTLNQDEFASFPHLEELELNENIVSAVEPGAFNNLFNLRTLGLRSNRLKLIPLGVFTGLSNLTKLDISENKIVILLDYMFQDLYNLKSLEVGDNDLVYISHRAFSGLNSLEQLTLEKCNLTSIPTEALSHLHGLIVLRLRHLNINAIRDYSFKRLYRLKVLEISHWPYLDTMTPNCLYGLNLTSLSITHCNLTAVPYLAVRHLVYLRFLNLSYNPISTIEGSMLHELLRLQEIQLVGGQLAVVEPYAFRGLNYLRVLNVSGNQLTTLEESVFHSVGNLETLILDSNPLACDCRLLWVFRRRWRLNFNRQQPTCATPEFVQGKEFKDFPDVLLPNYFTCRRARIRDRKAQQVFVDEGHTVQFVCRADGDPPPAILWLSPRKHLVSAKSNGRLTVFPDGTLEVRYAQVQDNGTYLCIAANAGGNDSMPAHLHVRSYSPDWPHQPNKTFAFISNQPGE
modifications: left off: a dimerising Fc or GST
notes: extra-cellular portion of human Sp35 (residues 1-532) fused to the hinge and Fc region of human IgG1
expression of MBP by western blot (4-week-old treated cocultures, 10 μg/ml for Fc fusions): increased
confocal microscopy of myelination (Sp35-Fc treated cocultures): MBP had encapsulated the axons
electron microscopy of myelination (cocultures treated 4 weeks, FIG. 10C): Multiple wellformed internodes
effect on myelination when both cell types overexpress DN-Sp35 (exogenously added): slight effects
effect on myelination when either cell type overexpresses DN-Sp35 alone (exogenously added): further enhanced myelination
effect on myelination in cocultures overexpressing FL-Sp35 (exogenously added, FL-Sp35 in either or both cell types): reversed the inhibition of myelination
axonal myelination (MBP+ myelinated axons) (treatment for 2 weeks, IHC, FIG. 10A): robust axonal myelination
